Assay results from paper PMC11975949 (Frontiers in Pharmacology, 2025).

Assays:
[1] = molecular target: NLuc-labeled chimeric receptor GLP-1/GIPR (GLP-1R with the C-terminal tail of GIPR) (human); assay: FRET or BRET; BRET in HEK-293 cells co-transfected 1:1 with NLuc-labeled receptor and NES-Venus-mini-G protein; cells in HBSS, agonist (GLP-1 or GIP) for 15 min, coelenterazine h 1 μM; BRET ratio as fold-change from non-stimulated, dose-response of the agonist
[2] = molecular target: NLuc-labeled human GLP-1R (human) (UniProt P43220); assay: as above
[3] = molecular target: NLuc-labeled chimeric receptor GIP/GLP-1R (GIPR with the C-terminal tail of GLP-1R) (human); assay: as above
[4] = molecular target: NLuc-labeled human GIPR (human) (UniProt P48546); assay: as above
GIPR = conditions: initially considered an antagonist; ref Al-Sabah et al., 2014a; Sparre-Ulrich et al., 2016; cited from earlier work
Description: (§1) [Graaf et al., 2016]). Both receptors are expressed in pancreatic β-cells and other cell types, resulting in numerous pleiotropic effects of their peptide agonists. […] [Liu et al., 2022]; [Drucker and Holst, 2023]). Studies show ...

[5] = tested on: animal models of diabetes and obesity; conditions: ref McClean et al., 2007, Gault et al.; cited from earlier work
Description: as §1

INS-1 832/3 cells [6] = conditions: ref Manchanda et al. (2023); cited from earlier work
GLP-1R = conditions: various cell types; ref Jorgensen et al., 2005; Manchanda et al., 2023; cited from earlier work
Description: For many GPCRs, homologous desensitization first requires the phosphorylation of the active state of the receptor by the G protein-coupled receptor kinase (GRK) family of kinases. This is then followed by the binding of arrestin, which sterically hinders coupling to G proteins, effectively desensitizing the receptor ([Krasel et al., 2005]). Arrestin can also act as a scaffolding protein, linking the receptor to the cellular endocytic machinery and facilitating internalization ([Ferguson, 2001]). It is now appreciated that arrestin can also act as a signaling molecule in its own right, linking ...

subjects with T2DM = tested on: subjects with T2DM; set-up: method as in Nauck et al., 1993; Gasbjerg et al., 2020; conditions: pharmacological doses, ref Nauck et al., 1993, Gasbjerg et al., 2020; cited from earlier work
INS-1 832/3 cells [7] = conditions: ref Manchanda et al. (2023); cited from earlier work; remark: listed apart in the source
[8] = subjects with obesity, phase 2 study, ref Véniant et al., 2024, Amgen; cited from earlier work
Description: as §1

[9] = molecular target: RLuc8-labeled chimeric receptor GLP-1/GIPR (GLP-1R with the C-terminal tail of GIPR) (human); assay: FRET or BRET; BRET in HEK-293 cells co-transfected 1:2 with RLuc8-labeled receptor and Arr3-SYFP2; cells in HBSS, agonist (GLP-1 or GIP) for 15 min, coelenterazine h 1 μM; BRET ratio as fold-change from non-stimulated, dose-response of the agonist
[10] = molecular target: SYFP2-labeled chimeric receptor GLP-1/GIPR (GLP-1R with the C-terminal tail of GIPR) (human); assay: FRET or BRET; BRET in HEK-293 cells co-transfected 1:2 with SYFP2-labeled receptor and Arr3-NLuc; cells in HBSS, agonist (GLP-1 or GIP) for 15 min, coelenterazine h 1 μM; BRET ratio as fold-change from non-stimulated, dose-response of the agonist

Chain of NLuc-labeled human GLP-1R (human) (P43220 24-463): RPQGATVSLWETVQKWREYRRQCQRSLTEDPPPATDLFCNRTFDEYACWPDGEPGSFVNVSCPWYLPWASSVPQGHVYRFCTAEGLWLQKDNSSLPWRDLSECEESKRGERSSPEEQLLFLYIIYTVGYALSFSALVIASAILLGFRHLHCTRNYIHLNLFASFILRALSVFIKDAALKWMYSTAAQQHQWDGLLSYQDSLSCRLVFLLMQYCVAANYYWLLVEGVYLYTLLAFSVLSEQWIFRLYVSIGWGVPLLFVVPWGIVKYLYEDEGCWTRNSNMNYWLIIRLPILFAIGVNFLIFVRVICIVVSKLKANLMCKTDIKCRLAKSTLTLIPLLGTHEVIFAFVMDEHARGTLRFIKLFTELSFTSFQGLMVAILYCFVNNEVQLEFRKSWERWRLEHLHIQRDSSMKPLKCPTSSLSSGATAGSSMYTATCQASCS
Chain of NLuc-labeled human GIPR (human) (P48546 22-466): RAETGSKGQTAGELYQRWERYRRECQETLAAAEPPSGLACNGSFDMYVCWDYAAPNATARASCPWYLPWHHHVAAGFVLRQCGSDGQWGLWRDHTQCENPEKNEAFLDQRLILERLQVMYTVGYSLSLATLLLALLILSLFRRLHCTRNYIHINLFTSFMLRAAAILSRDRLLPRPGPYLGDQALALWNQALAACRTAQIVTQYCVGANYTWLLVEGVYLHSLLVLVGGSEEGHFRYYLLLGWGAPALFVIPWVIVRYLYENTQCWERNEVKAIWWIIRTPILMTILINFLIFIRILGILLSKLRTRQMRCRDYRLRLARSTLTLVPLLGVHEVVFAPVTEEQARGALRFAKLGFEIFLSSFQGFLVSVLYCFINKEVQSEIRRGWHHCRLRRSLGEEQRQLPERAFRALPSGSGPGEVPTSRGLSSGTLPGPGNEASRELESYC

NES-Venus-mGαs
pEC50 of the agonist GLP-1 for recruitment [1]: 7.5 -log EC50/M | pEC50 of the agonist GLP-1 for recruitment [2]: 7.6 -log EC50/M | pEC50 of the agonist GIP for recruitment [3]: 8.9 -log EC50/M | pEC50 of the agonist GIP for recruitment [4]: 8.9 -log EC50/M

(Pro3)GIP: an analog of GIP with a glutamic-acid-to-proline substitution at position 3 (YAPGTFISDYSIAMDKIHQQDFVNWLLAQKGKKNDWKHNITQ; Gastric inhibitory polypeptide; UniProt P09681 52-93, looked up, variant E3P)
Agonism at GIP receptor (GIPR): low-potency agonist | Glucose homeostasis and weight gain [5]: improving glucose homeostasis and preventing weight gain

CC[C@H](C)[C@H](NC(=O)[C@H](Cc1ccccc1)NC(=O)[C@H](CCC(=O)O)NC(=O)[C@H](CCCCN)NC(=O)[C@H](C)NC(=O)[C@H](C)NC(=O)[C@H](CCC(N)=O)NC(=O)CNC(=O)[C@H](CCC(=O)O)NC(=O)[C@H](CC(C)C)NC(=O)[C@H](Cc1ccc(O)cc1)NC(=O)[C@H](CO)NC(=O)[C@H](CO)NC(=O)[C@@H](NC(=O)[C@H](CC(=O)O)NC(=O)[C@H](CO)NC(=O)[C@@H](NC(=O)[C@H](Cc1ccccc1)NC(=O)[C@@H](NC(=O)CNC(=O)[C@H](CCC(=O)O)NC(=O)[C@H](C)NC(=O)[C@@H](N)Cc1c[nH]cn1)[C@@H](C)O)[C@@H](C)O)C(C)C)C(=O)N[C@@H](C)C(=O)N[C@@H](Cc1c[nH]c2ccccc12)C(=O)N[C@@H](CC(C)C)C(=O)N[C@H](C(=O)N[C@@H](CCCCN)C(=O)NCC(=O)N[C@@H](CCCNC(=N)N)C(N)=O)C(C)C [GLP-1, Glucagon-like peptide-1]
GIP- vs GLP-1-stimulated insulin release (INS-1 832/3 cells [6]): no difference between GIP- and GLP-1-stimulated cAMP production or insulin release | Arrestin recruitment to GLP-1R, in words (GLP-1R): results in the rapid recruitment of arrestin | Overcoming the impaired incretin effect in T2DM (subjects with T2DM): can overcome this impairment in subjects with T2DM | GIP- vs GLP-1-stimulated cAMP production (INS-1 832/3 cells [7]): no difference between GIP- and GLP-1-stimulated cAMP production

Maridebart cafraglutide: fully human monoclonal anti-human GIPR antagonist antibody conjugated to two GLP-1R agonist peptides
Weight loss [8]: robust weight loss

SYFP2-labeled arrestin3 (from UniProt P32121 1-409) (natural protein)
pEC50 of the agonist GLP-1 for recruitment [9]: 7.18 -log EC50/M

NES-Venus-mGαq
pEC50 of the agonist GLP-1 for recruitment [1]: 7.1 -log EC50/M | pEC50 of the agonist GLP-1 for recruitment [2]: 7.3 -log EC50/M | pEC50 of the agonist GIP for recruitment [3]: 9 -log EC50/M | pEC50 of the agonist GIP for recruitment [4]: 8.6 -log EC50/M

NLuc-labeled arrestin3 (from UniProt P32121 1-409) (natural protein)
pEC50 of the agonist GLP-1 for recruitment [10]: 7.3 -log EC50/M
